Data as given in publication PMC6265900.

Legend:
factor XIIa = experiment: enzyme inhibition with chromogenic substrate (Dixon plot); enzyme (FXIIa 10 nM, plasma kallikrein 80 nM, trypsin 800 nM, elastase 400 nM) incubated with 0.5, 1 and 2 uM native poecistasin in 60 uL of 50 mM Tris buffer pH 7.4 for 5 min, then 0.2 mM chromogenic substrate; absorbance at 405 nm for 10 min; Ki from Dixon plot
plasma kallikrein = experiment: as above

Substance: native poecistasin (natural protein)
- Ki (factor XIIa): 0.00931 µM
- Ki (plasma kallikrein): 0.052 µM
